Data published in patent US20150087814A1.

Tests used:
FcγRIIb = FcγRIIb (UniProt P31994); experiment: SPR (Biacore T100), antibody captured on protein A chip, receptor injected as analyte
FcγRIIIa-F158 = FcγRIIIa-F158 (UniProt P08637); experiment: SPR (Biacore T100), antibody captured on protein A chip, receptor injected as analyte, 1:1 steady-state fit
FcγRIIIa-F158, sequence (P08637 17-208 limits assumed): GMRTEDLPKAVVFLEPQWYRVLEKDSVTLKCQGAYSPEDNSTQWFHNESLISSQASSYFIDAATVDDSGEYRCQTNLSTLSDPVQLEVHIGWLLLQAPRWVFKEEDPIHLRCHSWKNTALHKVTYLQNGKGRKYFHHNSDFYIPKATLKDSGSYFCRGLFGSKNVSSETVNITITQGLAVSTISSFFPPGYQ

FcγRIIb, sequence (P31994 46-217 limits assumed): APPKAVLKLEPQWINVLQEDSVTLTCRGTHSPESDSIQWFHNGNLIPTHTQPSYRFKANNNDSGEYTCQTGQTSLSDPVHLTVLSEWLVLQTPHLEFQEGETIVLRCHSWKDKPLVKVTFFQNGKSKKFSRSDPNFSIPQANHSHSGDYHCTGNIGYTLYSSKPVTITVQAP

- Kd (FcγRIIb): 2300 nM
- Kd (FcγRIIIa-F158): 123 nM
Substance: nonfucosylated G2 glycoform of rituximab (10) (antibody)
